Patent publication US20130045191A1 (IMMATICS BIOTECHNOLOGIES, published 2013)

Target: T1, HLA A*024 (human)
T1 construct: also called HLA A*024 alleles; HLA-A*24
Assay: HLA immunoprecipitation from tumour tissue, LC-MS (Example 1)

Binder: LYQILQGIVF [CDC2-001]
- binding result: binds
